The values that follow come from US20240025988A1 (GlaxoSmithKline, published 2024).

Residue numbers refer to the chain shown, from its start. “And” between values parts separate entries of the source, which are not always exact repeats. Equal values may be shown once. Where only a bound is given, the exact number is not on record here.

Assay [1] has as its target T1, human IL-7 (human, UniProt P13232 26-177).
T1 sequence: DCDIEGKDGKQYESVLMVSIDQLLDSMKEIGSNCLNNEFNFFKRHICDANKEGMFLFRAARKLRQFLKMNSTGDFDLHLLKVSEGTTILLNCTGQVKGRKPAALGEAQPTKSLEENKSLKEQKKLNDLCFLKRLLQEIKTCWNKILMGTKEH
Briefly: cell-based or functional assay.

Assay [2] deals with T1, human IL-7. Briefly: cell-based or functional assay. This is another data set of the same source.
Assay [3] deals with T1, human IL-7. Briefly: SPR, Biacore 8K, 25 °C, IL-7 as analyte. An excerpt:
(§1) (Table 5). […] (Table 5).

The target of assay [4] is T2, cynomolgus monkey IL-7 (cynomolgus monkey, UniProt A0A2K5W745 26-178).
T2 construct: also called cynoIL-7; cynomolgus IL-7
T2 sequence: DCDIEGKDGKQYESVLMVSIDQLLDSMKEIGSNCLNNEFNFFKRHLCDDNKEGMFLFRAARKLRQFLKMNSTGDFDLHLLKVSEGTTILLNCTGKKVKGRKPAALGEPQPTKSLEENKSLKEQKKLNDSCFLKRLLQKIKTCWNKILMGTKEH
Briefly: SPR, Biacore 8K, 25 °C, IL-7 as analyte.
Description: as §1

For assay [5], the target named is T1, human IL-7. The assay is described as follows: SPR, Biacore 8K, 37 °C, IL-7 as analyte.
Description: as §1

Assay [6] concerns the target T2, cynomolgus monkey IL-7. The assay is described as follows: SPR, Biacore 8K, 37 °C, IL-7 as analyte.
Description: as §1

The target of assay [7] is T2, cynomolgus monkey IL-7. The assay is described as follows: SPR, Biacore 8K, 37 °C (text value; Table 5 prints 73); 37 C; value of the running text.
Description: as §1

Assay [8] has as its target T1, human IL-7. The assay is described as follows: SPR, Biacore 8K, 37 °C; geometric mean KD from all experiments, with 85% confidence interval in brackets.

B1: DRSPAI-L7B (antibody, human IgG1, kappa, V domains shown)
VH: QVQLVESGGGVVQPGRSLRLSCAASGFTFSSYGVHWVRQAPGKGLEWLAAIWTGGSTDYNSAFSSRFTISRDNSKNTLYLQMNSLRAEDTAVYYCARNGYGESFAYWGQGTLVTVSS
VL: DIQMTQSPSSLSASVGDRVTITCKASESLDHDGDSYINWYQQKPGKAPKLLIYMGSNVEFGVPARFSGSGSGTDFTLTISSLQPEDFATYYCQQSNVDPLTFGGGTKVEIKR
notes: Human IgG1 kappa; also called DRSPAI-171B; DRSPAI-17B
B1: in assay [1], the “IL-6 secretion by CD4+ Tmem cells, IC50” value was 0.202 nM; the “IL-10 secretion by PBMC (rhIL-7 and anti-CD3), mean IC50” value turned out to be 0.207 nM; the “TNFα secretion by CD4+ Tmem cells, IC50” value was 0.127 nM. In assay [2], the “IFN-γ production by PBMC, IC50 (IL-7 10 ng/ml, anti-CD3)” value was 196 pM and 29.4 ng/ml; the “IL-17 production by Tmem, IC50 (IL-7 20 ng/ml)” value is 40.5 ng/ml and 270 pM; the “Teff and Tmem proliferation (CD4+), IC50 (IL-7 10 ng/ml)” value was 79.5 ng/ml and 530 pM; the “Teff and Tmem proliferation (CD4+), IC50 (IL-7 20 ng/ml)” value was 78 ng/ml and 520 pM. For the same molecule, in assay [2], the “pSTAT5 in CCRF-CEM cells, IC50 (IL-7 0.034 ng/ml, 2 pM)” value is < 0.15 ng/ml and < 1 pM; the “pSTAT5 in whole blood (CD4+ T cells), median IC50 (IL-7 1 ng/ml)” value is 5.1 ng/ml and 34 pM. Further, in assay [3], the Kd was 0.031 nM and 0.034 nM; the off-rate (koff) was 0.000206 s⁻¹ and 0.000158 s⁻¹; the kon was 6.49e+06 M⁻¹ s⁻¹ and 4.65e+06 M⁻¹ s⁻¹. In assay [4], this molecule returned a Kd of 0.053 nM, a koff of 0.00017 s⁻¹ and an on-rate (kon) of 3.17e+06 M⁻¹ s⁻¹. For the same molecule, in assay [5], the Kd is 0.069 nM and 0.046 nM and 0.075 nM and 0.087 nM; the koff was 0.000568 s⁻¹ and 0.000678 s⁻¹ and 0.000826 s⁻¹ and 0.000515 s⁻¹; the on-rate constant (kon) is 8.28e+06 M⁻¹ s⁻¹ and 1.47e+07 M⁻¹ s⁻¹ and 1.1e+07 M⁻¹ s⁻¹ and 5.9e+06 M⁻¹ s⁻¹. Moreover, in assay [6], the equilibrium dissociation constant (Kd) stood at 0.073 nM, the off-rate constant (koff) turned out to be 0.000462 s⁻¹ and the association rate constant (kon) stood at 6.17e+06 M⁻¹ s⁻¹. In assay [7], this molecule displayed a Kd of roughly 0.075 nM. This molecule also yielded a Kd in assay [8] of 0.0674 nM.

B2: A1290 (antibody, human IgG1, kappa, V domains shown)
VH: B1 VH with V34L, S61A, S64I
VL: B1 VL with E27Q, L29V, H31D, Y36F, M54V, G55A, V58L, F60S, V97E
With B2, the “pSTAT5 in whole blood (CD4+ T cells), median IC50” value in assay [1] was 18 pM and 0.00275 µg/ml.

B3: A1291 (antibody, human IgG1, kappa, V domains shown)
VH: B1 VH with V34L, S61A, A62E
VL: B1 VL with E27H, L29V, H31D, I37M, G55A, V58L, F60S, V97E
Regarding B3, the “pSTAT5 in whole blood (CD4+ T cells), median IC50” value in assay [1] is 16 pM and 0.00246 µg/ml.

B4: A1294 (antibody, human IgG1, kappa, V domains shown)
VH: B1 VH with S31T, T53S, S61V
VL: B1 VL with E27Q, L29V, H31D, I37M, G55A, V58L, F60S, V97E
On to B4, for which, in assay [1], the “pSTAT5 in whole blood (CD4+ T cells), median IC50” value was 76 pM and 0.0114 µg/ml.
